B1: H4H25021D (bispecific antibody, IgG4, V domains shown)
VH 1: QVQLVQSGPEVKKPGASVKVSCKASGYTFPNFGISWVRQAPGQGLEWMGWIAPYNVATNYAPKLQGRVTMTTDTSTSTAYMELRSLRSDDTAVYYCARWGAGYMGYYYYGMDVWGQGTTVTVSS
VH 2: QVQLVQSGVEVKKPGASVKVSCKASGYTFTDYGISWVRQAPGQGLEWMGWISAHNGNTNYAQKLQGRVTMTTDTSTNTAYMELRSLRSDDTAVYYCARRNWKYFDYWGQGTLVTVSS
VL: not shown
notes: Wild-type kappa CL and a modified (chimeric) IgG4 CH domain as set forth in US20140243504A1; also called bispecific anti-HER2xAPLP2 antibody
B2: H4H25018D (bispecific antibody, IgG4, V domains shown)
VH 1: QVQLQESGPGLVKPSQTLSLTCTVSGGSISSGHYFWSWIRQHPGKGLEWIGYIFYSGSTHYNPSLKSRLSISVDTSKNQFSLRLTSVTAADTAVYYCAREEGDYNFWDVDYVPGHFDYWGQGTLVTVSS
VH 2: EVQLVESGGGLVQPGRSLRLSCVASGFTFADYAMHWVRQAPGKGLEWVSGISWNSGNIDYADSVKGRFTISRDNAKNSLYLQMNSLRTEDTALYYCAKVRIVVAGYYYYYYGMDVWGQGTTVTVSS
VL: not shown
notes: as for B1
B3: H4H25014D (bispecific antibody, IgG4, V domains shown)
VH 1: B2 VH 1
VH 2: EVQLVESGGGLVQPGGSLRLSCAASGFTFSTYVMSWVRQAPGKGPEWVSGISGRTGTTYYADSVKGRFTISRDNSKNTLYLQMNSLRAEDTAVYYCASRITAAGRGYYYYYGMDVWGRGTTVTVSS
VL: not shown
notes: as for B1
B4: H4H25020D (bispecific antibody, IgG4, V domains shown)
VH 1: B2 VH 1
VH 2: B1 VH 2
VL: not shown
notes: as for B1
B5: H4H25019D (bispecific antibody, IgG4, V domains shown)
VH 1: B1 VH 1
VH 2: B2 VH 2
VL: not shown
notes: as for B1
B6: H4H25018D-Compound II (bispecific antibody, V domains shown)
VH 1: B2 VH 1
VH 2: B2 VH 2
VL: not shown
modifications: Compound II on reduced interchain cysteines
B7: H4H25019D-Compound II (bispecific antibody, V domains shown)
VH 1: B1 VH 1
VH 2: B2 VH 2
VL: not shown
modifications: Compound II on reduced interchain cysteines

Biological target: T1, human HER2 expressed on cells (cancer cell lines and normal primary cultures) (human, UniProt P04626 23-1255)
T1 construct: Endogenous HER2 of the cell lines; the same cells also express APLP2; also called human epidermal growth factor receptor 2
Experiment: imaging, Alexa647-labelled antibody 10 ug/mL at 4 C on NBE cells; signal per nuclei, normalised to the highest cell line
Description: (§1) After, cells were washed twice with cold DMEM+10% FBS. […] After, the solution was replaced with DPBS/CM. Binding of the bispecific antibodies to each of the cell types was measured using an Image Xpress^Micro automatic microscope (Molecular Devices). […] (See also FIG. 2.)
(§2) The signal of antibody binding (mean intensity fluorescence of Alexa647) divided by the nuclei signals was determined for each condition using MetaXpress software (Molecular Devices). Values were normalized to the cell line displaying the highest antibody binding signal.

Antibody bound (% of highest) [%] | Binder
8 | B1
9 | B2
5 | B3
8 | B4
6 | B5

Biological target: T1, human HER2 expressed on cells (cancer …)
Experiment: imaging, Alexa647-labelled antibody 10 ug/mL at 4 C on JIMT-1 cells; signal per nuclei, normalised to the highest cell line
Description: as §1, §2

Antibody bound (% of highest) [%] | Binder
17 | B1
17 | B2
17 | B3
18 | B4
15 | B5

Biological target: T1, human HER2 expressed on cells (cancer …)
Experiment: cell-based or functional assay

Binder | IC50 (nM) of cell killing, JIMT-1 cells, 6 days, nuclei count [nM]
B6 | 0.3
B7 | 0.9

Biological target: T2, human HER2 extracellular domain expressed with a C-terminal myc-myc-hexahistidine tag (human, UniProt P04626 23-652)
T2 construct: also called hHER2-MMH; HER2.mmh
Experiment: SPR (Biacore 4000), antibody captured on anti-human Fc, hHER2-MMH injected, 37 C
Description: (§3) Equilibrium dissociation constants (KD values) for HER2 and APLP2 binding to purified anti-HER2xAPLP2 bispecific and parental antibodies were determined using a real-time surface plasmon resonance biosensor using a Biacore 4000 instrument. The Biacore sensor surface was first derivatized by amine coupling with a monoclonal mouse anti-human Fc antibody (GE, Cat #BR-1008-39) to capture anti-HER2xAPLP2 bispecific monoclonal antibodies. […] Kinetic association rate constant (ka) and dissociation rate constant (kd) were determined by fitting the real-time sensorgrams to a 1:1 binding model using Scrubber 2.0c curve fitting software. Binding dissociation equilibrium constants (KD) and dissociative half-lives (t1/2) were calculated from the kinetic rate constants as: […]

Kd [nM] | t½ [min] | Binder
4.21 | – | B2
3.37 | 16 | B3
4.2 | – | B4
– | 11 | B5

Biological target: T3, human APLP2 extracellular domain expressed with a C-terminal myc-myc-hexahistidine tag (human, UniProt Q06481 32-692)
T3 construct: also called hAPLP2-MMH; APLP2.mmh
Experiment: SPR, antibody captured, hAPLP2-MMH injected, 25 C

T3 sequence (Q06481 other isoform, or with tags, fused parts or gaps): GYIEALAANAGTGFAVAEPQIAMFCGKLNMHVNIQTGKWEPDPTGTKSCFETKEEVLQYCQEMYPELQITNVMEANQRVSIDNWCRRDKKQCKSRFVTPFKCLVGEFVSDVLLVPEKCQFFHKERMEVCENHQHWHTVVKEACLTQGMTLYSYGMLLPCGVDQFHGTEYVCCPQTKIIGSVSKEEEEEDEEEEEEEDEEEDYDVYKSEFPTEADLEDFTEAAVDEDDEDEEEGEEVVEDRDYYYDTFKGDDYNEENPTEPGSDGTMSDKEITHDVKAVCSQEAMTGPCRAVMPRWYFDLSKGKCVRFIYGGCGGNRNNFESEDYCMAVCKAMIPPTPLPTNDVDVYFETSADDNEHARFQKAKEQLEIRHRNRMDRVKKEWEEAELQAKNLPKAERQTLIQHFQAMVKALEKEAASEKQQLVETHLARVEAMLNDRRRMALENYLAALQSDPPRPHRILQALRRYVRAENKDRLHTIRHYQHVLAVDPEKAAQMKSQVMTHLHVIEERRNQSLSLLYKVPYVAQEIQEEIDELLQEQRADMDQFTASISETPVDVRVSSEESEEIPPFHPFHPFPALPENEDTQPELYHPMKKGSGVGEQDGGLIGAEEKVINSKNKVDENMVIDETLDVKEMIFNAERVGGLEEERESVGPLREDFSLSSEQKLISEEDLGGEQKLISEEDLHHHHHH

90 nM hAPLP2-MMH Bound (RU) | Kd [nM] | t½ [min] | Binder
30.2 | 15.6 | 6.8 | B2
17.1 | 9.98 | 12.2 | B3
30.6 | 14.6 | 8.7 | B5

Biological target: T1, human HER2 expressed on cells (cancer …)
Experiment: imaging, Alexa647-labelled antibody 10 ug/mL at 4 C on BT483 cells; signal per nuclei, normalised to the highest cell line
Description: (§4) To test the ability of bispecific anti-HER2xAPLP2 molecules described herein to bind to cells lines expressing various levels of HER2, a high content imaging assay was performed. […] Cells were plated on collagen-coated, black wall, 96-well, optical plates (Greiner, Cat #655936) at 2.5×10⁵ cells per well in their appropriate culture media, which is described for each cell line/culture in Table 6, and incubated overnight at 37° C. in 5% CO₂.
as §1, §2

Antibody bound (% of highest) [%] | Binder
22 | B1
16 | B2
15 | B4
22 | B5

Biological target: T3, human APLP2 extracellular domain …
Experiment: SPR (Biacore 4000), antibody captured on anti-human Fc, hAPLP2-MMH injected, 37 C
Description: as §3

100 nM hAPLP2-MMH Bound (RU) | Kd [nM] | t½ [min] | Binder
24 | 976 | 0.04 | B1
49 | 145 | 1.2 | B2
23 | 235 | 1.1 | B3
30 | 844 | 0.03 | B4
48 | 183 | 1.1 | B5

Biological target: T3, human APLP2 extracellular domain …
Experiment: SPR, antibody captured, hAPLP2-MMH injected, 25 C (second row for this antibody)

Kd [nM] | t½ [min] | Binder
16.6 | 7.7 | B2
17.2 | 6.7 | B5

Biological target: T1, human HER2 expressed on cells (cancer …)
Experiment: imaging, Alexa647-labelled antibody 10 ug/mL at 4 C on MDA-MB-361 cells; signal per nuclei, normalised to the highest cell line
Description: as §1, §2

Antibody bound (% of highest) [%] | Binder
37 | B1
30 | B2
30 | B3
27 | B4
32 | B5

Biological target: T1, human HER2 expressed on cells (cancer …)
Experiment: imaging, Alexa647-labelled antibody 10 ug/mL at 4 C on MCF7 cells; signal per nuclei, normalised to the highest cell line
Description: as §1, §2

Antibody bound (% of highest) [%] | Binder
7 | B1
6 | B2
5 | B3
5 | B4
7 | B5

Biological target: T1, human HER2 expressed on cells (cancer …)
Experiment: imaging, Alexa647-labelled antibody 10 ug/mL at 4 C on SKBR3 cells; signal per nuclei, normalised to the highest cell line
Description: as §4, §1, §2

Antibody bound (% of highest) [%] | Binder
100 | B1
100 | B2
100 | B3
100 | B4
100 | B5

Biological target: T1, human HER2 expressed on cells (cancer …)
Experiment: imaging, Alexa647-labelled antibody 10 ug/mL at 4 C on NLE cells; signal per nuclei, normalised to the highest cell line
Description: as §1, §2

Antibody bound (% of highest) [%] | Binder
7 | B1
3 | B2
4 | B3
6 | B4
2 | B5

Biological target: T1, human HER2 expressed on cells (cancer …)
Experiment: imaging, Alexa647-labelled antibody 10 ug/mL at 4 C on MDA-MB-453 cells; signal per nuclei, normalised to the highest cell line
Description: as §1, §2

Antibody bound (% of highest) [%] | Binder
28 | B1
25 | B2
25 | B3
24 | B4
30 | B5

Biological target: T1, human HER2 expressed on cells (cancer …)
Experiment: imaging, Alexa647-labelled antibody 10 ug/mL at 4 C on MDA-MB-468 cells; signal per nuclei, normalised to the highest cell line
Description: as §1, §2

Antibody bound (% of highest) [%] | Binder
1 | B1
1 | B2
1 | B4
1 | B5

Biological target: T1, human HER2 expressed on cells (cancer …)
Experiment: imaging, Alexa647-labelled antibody 10 ug/mL at 4 C on T47D cells; signal per nuclei, normalised to the highest cell line
Description: as §1, §2

Antibody bound (% of highest) [%] | Binder
8 | B1
5 | B2
6 | B3
5 | B4
9 | B5
